From US9957297B2, “Template-fixed peptidomimetics as inhibitors of FPR1” (POLYPHOR AG, priority 2011, dated 2018)
Bridges are numbered along the chain shown (N, C = ends). [ ]: non-standard residue; d: D form. Phe(4-CF3) = N[C@@H](Cc1ccc(C(F)(F)F)cc1)C(=O)O; hSer = N[C@@H](CCO)C(=O)O; Dab = NCC[C@H](N)C(=O)O

T1: Formyl-Peptide Receptor 1 (UniProt P21462 1-350, limits assumed)
T1 sequence (looked up): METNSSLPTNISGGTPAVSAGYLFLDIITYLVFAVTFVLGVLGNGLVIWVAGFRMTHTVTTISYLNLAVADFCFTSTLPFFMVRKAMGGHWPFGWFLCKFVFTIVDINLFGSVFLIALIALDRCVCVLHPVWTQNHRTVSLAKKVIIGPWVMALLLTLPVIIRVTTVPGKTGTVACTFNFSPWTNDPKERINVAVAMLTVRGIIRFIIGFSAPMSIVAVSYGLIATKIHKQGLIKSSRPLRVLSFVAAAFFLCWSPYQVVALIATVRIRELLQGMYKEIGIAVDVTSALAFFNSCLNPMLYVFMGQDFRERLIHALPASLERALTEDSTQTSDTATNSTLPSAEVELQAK


Biological target: T1, Formyl-Peptide Receptor 1
Assay: cell-based or functional assay

β-Arrestin IC50 | Binder
77 nM | cyclo(YHKCHG[dA]WTICYEK[dP]P) (disulfide 4-11; SMILES CC[C@H](C)[C@@H]1NC(=O)[C@H]([C@@H](C)O)NC(=O)[C@H](Cc2c[nH]c3ccccc23)NC(=O)[C@@H](C)NC(=O)CNC(=O)[C@H](Cc2c[nH]cn2)NC(=O)[C@@H]2CSSC[C@H](NC1=O)C(=O)N[C@@H](Cc1ccc(O)cc1)C(=O)N[C@@H](CCC(=O)O)C(=O)N[C@@H](CCCCN)C(=O)N1CCC[C@@H]1C(=O)N1CCC[C@H]1C(=O)N[C@@H](Cc1ccc(O)cc1)C(=O)N[C@@H](Cc1c[nH]cn1)C(=O)N[C@@H](CCCCN)C(=O)N2) [cyclo(-Tyr-His-Lys-Cys-His-Gly-^DAla-Trp-Thr-Ile-Cys-Tyr-Glu-Lys-^DPro-Pro-)]
111 nM | cyclo(GHKCHG[dP]WTICYEK[dP]P) (disulfide 4-11; SMILES CC[C@H](C)[C@@H]1NC(=O)[C@H]([C@@H](C)O)NC(=O)[C@H](Cc2c[nH]c3ccccc23)NC(=O)[C@H]2CCCN2C(=O)CNC(=O)[C@H](Cc2c[nH]cn2)NC(=O)[C@@H]2CSSC[C@H](NC1=O)C(=O)N[C@@H](Cc1ccc(O)cc1)C(=O)N[C@@H](CCC(=O)O)C(=O)N[C@@H](CCCCN)C(=O)N1CCC[C@@H]1C(=O)N1CCC[C@H]1C(=O)NCC(=O)N[C@@H](Cc1c[nH]cn1)C(=O)N[C@@H](CCCCN)C(=O)N2) [cyclo(-Gly-His-Lys-Cys-His-Gly-^DPro-Trp-Thr-Ile-Cys-Tyr-Glu-Lys-^DPro-Pro-)]
177 nM | cyclo(DHKCHG[dP]WTICYEK[dP]P) (disulfide 4-11; SMILES CC[C@H](C)[C@@H]1NC(=O)[C@H]([C@@H](C)O)NC(=O)[C@H](Cc2c[nH]c3ccccc23)NC(=O)[C@H]2CCCN2C(=O)CNC(=O)[C@H](Cc2c[nH]cn2)NC(=O)[C@@H]2CSSC[C@H](NC1=O)C(=O)N[C@@H](Cc1ccc(O)cc1)C(=O)N[C@@H](CCC(=O)O)C(=O)N[C@@H](CCCCN)C(=O)N1CCC[C@@H]1C(=O)N1CCC[C@H]1C(=O)N[C@@H](CC(=O)O)C(=O)N[C@@H](Cc1c[nH]cn1)C(=O)N[C@@H](CCCCN)C(=O)N2) [cyclo(-Asp-His-Lys-Cys-His-Gly-^DPro-Trp-Thr-Ile-Cys-Tyr-Glu-Lys-^DPro-Pro-)]
239 nM | cyclo(HHKCHG[dP]WTICYEK[dP]P) (disulfide 4-11; SMILES CC[C@H](C)[C@@H]1NC(=O)[C@H]([C@@H](C)O)NC(=O)[C@H](Cc2c[nH]c3ccccc23)NC(=O)[C@H]2CCCN2C(=O)CNC(=O)[C@H](Cc2c[nH]cn2)NC(=O)[C@@H]2CSSC[C@H](NC1=O)C(=O)N[C@@H](Cc1ccc(O)cc1)C(=O)N[C@@H](CCC(=O)O)C(=O)N[C@@H](CCCCN)C(=O)N1CCC[C@@H]1C(=O)N1CCC[C@H]1C(=O)N[C@@H](Cc1c[nH]cn1)C(=O)N[C@@H](Cc1c[nH]cn1)C(=O)N[C@@H](CCCCN)C(=O)N2) [cyclo(-His-His-Lys-Cys-His-Gly-^DPro-Trp-Thr-Ile-Cys-Tyr-Glu-Lys-^DPro-Pro-)]
153 nM | cyclo(YHKCHG[dP]WTLCYEK[dP]P) (disulfide 4-11; SMILES CC(C)C[C@@H]1NC(=O)[C@H]([C@@H](C)O)NC(=O)[C@H](Cc2c[nH]c3ccccc23)NC(=O)[C@H]2CCCN2C(=O)CNC(=O)[C@H](Cc2c[nH]cn2)NC(=O)[C@@H]2CSSC[C@H](NC1=O)C(=O)N[C@@H](Cc1ccc(O)cc1)C(=O)N[C@@H](CCC(=O)O)C(=O)N[C@@H](CCCCN)C(=O)N1CCC[C@@H]1C(=O)N1CCC[C@H]1C(=O)N[C@@H](Cc1ccc(O)cc1)C(=O)N[C@@H](Cc1c[nH]cn1)C(=O)N[C@@H](CCCCN)C(=O)N2) [cyclo(-Tyr-His-Lys-Cys-His-Gly-^DPro-Trp-Thr-Leu-Cys-Tyr-Glu-Lys-^DPro-Pro-)]
194 nM | cyclo([Dab]HKCHG[dP]WTICYEK[dP]P) (disulfide 4-11; SMILES CC[C@H](C)[C@@H]1NC(=O)[C@H]([C@@H](C)O)NC(=O)[C@H](Cc2c[nH]c3ccccc23)NC(=O)[C@H]2CCCN2C(=O)CNC(=O)[C@H](Cc2c[nH]cn2)NC(=O)[C@@H]2CSSC[C@H](NC1=O)C(=O)N[C@@H](Cc1ccc(O)cc1)C(=O)N[C@@H](CCC(=O)O)C(=O)N[C@@H](CCCCN)C(=O)N1CCC[C@@H]1C(=O)N1CCC[C@H]1C(=O)N[C@@H](CCN)C(=O)N[C@@H](Cc1c[nH]cn1)C(=O)N[C@@H](CCCCN)C(=O)N2) [cyclo(-Dab-His-Lys-Cys-His-Gly-^DPro-Trp-Thr-Ile-Cys-Tyr-Glu-Lys-^DPro-Pro-)]
248 nM | cyclo([Dab]HKCWG[dP]WTICYEK[dP]P) (disulfide 4-11; SMILES CC[C@H](C)[C@@H]1NC(=O)[C@H]([C@@H](C)O)NC(=O)[C@H](Cc2c[nH]c3ccccc23)NC(=O)[C@H]2CCCN2C(=O)CNC(=O)[C@H](Cc2c[nH]c3ccccc23)NC(=O)[C@@H]2CSSC[C@H](NC1=O)C(=O)N[C@@H](Cc1ccc(O)cc1)C(=O)N[C@@H](CCC(=O)O)C(=O)N[C@@H](CCCCN)C(=O)N1CCC[C@@H]1C(=O)N1CCC[C@H]1C(=O)N[C@@H](CCN)C(=O)N[C@@H](Cc1c[nH]cn1)C(=O)N[C@@H](CCCCN)C(=O)N2) [cyclo(-Dab-His-Lys-Cys-Trp-Gly-^DPro-Trp-Thr-Ile-Cys-Tyr-Glu-Lys-^DPro-Pro-)]
633 nM | cyclo(YHKCWG[dP]WTICY[Dab]K[dP]P) (disulfide 4-11; SMILES CC[C@H](C)[C@@H]1NC(=O)[C@H]([C@@H](C)O)NC(=O)[C@H](Cc2c[nH]c3ccccc23)NC(=O)[C@H]2CCCN2C(=O)CNC(=O)[C@H](Cc2c[nH]c3ccccc23)NC(=O)[C@@H]2CSSC[C@H](NC1=O)C(=O)N[C@@H](Cc1ccc(O)cc1)C(=O)N[C@@H](CCN)C(=O)N[C@@H](CCCCN)C(=O)N1CCC[C@@H]1C(=O)N1CCC[C@H]1C(=O)N[C@@H](Cc1ccc(O)cc1)C(=O)N[C@@H](Cc1c[nH]cn1)C(=O)N[C@@H](CCCCN)C(=O)N2) [cyclo(-Tyr-His-Lys-Cys-Trp-Gly-^DPro-Trp-Thr-Ile-Cys-Tyr-Dab-Lys-^DPro-Pro-)]
37 nM | cyclo(YHKCHG[dP]WTICYDK[dP]P) (disulfide 4-11; SMILES CC[C@H](C)[C@@H]1NC(=O)[C@H]([C@@H](C)O)NC(=O)[C@H](Cc2c[nH]c3ccccc23)NC(=O)[C@H]2CCCN2C(=O)CNC(=O)[C@H](Cc2c[nH]cn2)NC(=O)[C@@H]2CSSC[C@H](NC1=O)C(=O)N[C@@H](Cc1ccc(O)cc1)C(=O)N[C@@H](CC(=O)O)C(=O)N[C@@H](CCCCN)C(=O)N1CCC[C@@H]1C(=O)N1CCC[C@H]1C(=O)N[C@@H](Cc1ccc(O)cc1)C(=O)N[C@@H](Cc1c[nH]cn1)C(=O)N[C@@H](CCCCN)C(=O)N2) [cyclo(-Tyr-His-Lys-Cys-His-Gly-^DPro-Trp-Thr-Ile-Cys-Tyr-Asp-Lys-^DPro-Pro-)]
69 nM | cyclo(YHKCWG[dA]WTICYEK[dP]P) (disulfide 4-11; SMILES CC[C@H](C)[C@@H]1NC(=O)[C@H]([C@@H](C)O)NC(=O)[C@H](Cc2c[nH]c3ccccc23)NC(=O)[C@@H](C)NC(=O)CNC(=O)[C@H](Cc2c[nH]c3ccccc23)NC(=O)[C@@H]2CSSC[C@H](NC1=O)C(=O)N[C@@H](Cc1ccc(O)cc1)C(=O)N[C@@H](CCC(=O)O)C(=O)N[C@@H](CCCCN)C(=O)N1CCC[C@@H]1C(=O)N1CCC[C@H]1C(=O)N[C@@H](Cc1ccc(O)cc1)C(=O)N[C@@H](Cc1c[nH]cn1)C(=O)N[C@@H](CCCCN)C(=O)N2) [cyclo(-Tyr-His-Lys-Cys-Trp-Gly-^DAla-Trp-Thr-Ile-Cys-Tyr-Glu-Lys-^DPro-Pro-)]
60 nM | cyclo(YHACWG[dP]WTICYQK[dP]E) (disulfide 4-11; SMILES CC[C@H](C)[C@@H]1NC(=O)[C@H]([C@@H](C)O)NC(=O)[C@H](Cc2c[nH]c3ccccc23)NC(=O)[C@H]2CCCN2C(=O)CNC(=O)[C@H](Cc2c[nH]c3ccccc23)NC(=O)[C@@H]2CSSC[C@H](NC1=O)C(=O)N[C@@H](Cc1ccc(O)cc1)C(=O)N[C@@H](CCC(N)=O)C(=O)N[C@@H](CCCCN)C(=O)N1CCC[C@@H]1C(=O)N[C@@H](CCC(=O)O)C(=O)N[C@@H](Cc1ccc(O)cc1)C(=O)N[C@@H](Cc1c[nH]cn1)C(=O)N[C@@H](C)C(=O)N2) [cyclo(-Tyr-His-Ala-Cys-Trp-Gly-^DPro-Trp-Thr-Ile-Cys-Tyr-Gln-Lys-^DPro-Glu-)]
138 nM | cyclo(YHKCHG[dP]WTICY[hSer]K[dP]P) (disulfide 4-11; SMILES CC[C@H](C)[C@@H]1NC(=O)[C@H]([C@@H](C)O)NC(=O)[C@H](Cc2c[nH]c3ccccc23)NC(=O)[C@H]2CCCN2C(=O)CNC(=O)[C@H](Cc2c[nH]cn2)NC(=O)[C@@H]2CSSC[C@H](NC1=O)C(=O)N[C@@H](Cc1ccc(O)cc1)C(=O)N[C@@H](CCO)C(=O)N[C@@H](CCCCN)C(=O)N1CCC[C@@H]1C(=O)N1CCC[C@H]1C(=O)N[C@@H](Cc1ccc(O)cc1)C(=O)N[C@@H](Cc1c[nH]cn1)C(=O)N[C@@H](CCCCN)C(=O)N2) [cyclo(-Tyr-His-Lys-Cys-His-Gly-^DPro-Trp-Thr-Ile-Cys-Tyr-Hse-Lys-^DPro-Pro-)]
232 nM | cyclo(YHKCHG[dP]WTVCYEK[dP]P) (disulfide 4-11; SMILES CC(C)[C@@H]1NC(=O)[C@H]([C@@H](C)O)NC(=O)[C@H](Cc2c[nH]c3ccccc23)NC(=O)[C@H]2CCCN2C(=O)CNC(=O)[C@H](Cc2c[nH]cn2)NC(=O)[C@@H]2CSSC[C@H](NC1=O)C(=O)N[C@@H](Cc1ccc(O)cc1)C(=O)N[C@@H](CCC(=O)O)C(=O)N[C@@H](CCCCN)C(=O)N1CCC[C@@H]1C(=O)N1CCC[C@H]1C(=O)N[C@@H](Cc1ccc(O)cc1)C(=O)N[C@@H](Cc1c[nH]cn1)C(=O)N[C@@H](CCCCN)C(=O)N2) [cyclo(-Tyr-His-Lys-Cys-His-Gly-^DPro-Trp-Thr-Val-Cys-Tyr-Glu-Lys-^DPro-Pro-)]
114 nM | cyclo(YHKCHG[dP][Phe(4-CF3)]TICYEK[dP]P) (disulfide 4-11; SMILES CC[C@H](C)[C@@H]1NC(=O)[C@H]([C@@H](C)O)NC(=O)[C@H](Cc2ccc(C(F)(F)F)cc2)NC(=O)[C@H]2CCCN2C(=O)CNC(=O)[C@H](Cc2c[nH]cn2)NC(=O)[C@@H]2CSSC[C@H](NC1=O)C(=O)N[C@@H](Cc1ccc(O)cc1)C(=O)N[C@@H](CCC(=O)O)C(=O)N[C@@H](CCCCN)C(=O)N1CCC[C@@H]1C(=O)N1CCC[C@H]1C(=O)N[C@@H](Cc1ccc(O)cc1)C(=O)N[C@@H](Cc1c[nH]cn1)C(=O)N[C@@H](CCCCN)C(=O)N2) [cyclo(-Tyr-His-Lys-Cys-His-Gly-^DPro-Phe(4CF3)-Thr-Ile-Cys-Tyr-Glu-Lys-^DPro-Pro-)]
